For the test, the target named is LRP1 (full-length cDNA of LRP-1, Accession #NM_002332.2) overexpressed on cells (human, UniProt Q07954 20-4544). Briefly: cell-based or functional assay.
LRP1 (full-length cDNA of LRP-1, Accession #NM_002332.2) overexpressed on cells, sequence (Q07954 20-4544): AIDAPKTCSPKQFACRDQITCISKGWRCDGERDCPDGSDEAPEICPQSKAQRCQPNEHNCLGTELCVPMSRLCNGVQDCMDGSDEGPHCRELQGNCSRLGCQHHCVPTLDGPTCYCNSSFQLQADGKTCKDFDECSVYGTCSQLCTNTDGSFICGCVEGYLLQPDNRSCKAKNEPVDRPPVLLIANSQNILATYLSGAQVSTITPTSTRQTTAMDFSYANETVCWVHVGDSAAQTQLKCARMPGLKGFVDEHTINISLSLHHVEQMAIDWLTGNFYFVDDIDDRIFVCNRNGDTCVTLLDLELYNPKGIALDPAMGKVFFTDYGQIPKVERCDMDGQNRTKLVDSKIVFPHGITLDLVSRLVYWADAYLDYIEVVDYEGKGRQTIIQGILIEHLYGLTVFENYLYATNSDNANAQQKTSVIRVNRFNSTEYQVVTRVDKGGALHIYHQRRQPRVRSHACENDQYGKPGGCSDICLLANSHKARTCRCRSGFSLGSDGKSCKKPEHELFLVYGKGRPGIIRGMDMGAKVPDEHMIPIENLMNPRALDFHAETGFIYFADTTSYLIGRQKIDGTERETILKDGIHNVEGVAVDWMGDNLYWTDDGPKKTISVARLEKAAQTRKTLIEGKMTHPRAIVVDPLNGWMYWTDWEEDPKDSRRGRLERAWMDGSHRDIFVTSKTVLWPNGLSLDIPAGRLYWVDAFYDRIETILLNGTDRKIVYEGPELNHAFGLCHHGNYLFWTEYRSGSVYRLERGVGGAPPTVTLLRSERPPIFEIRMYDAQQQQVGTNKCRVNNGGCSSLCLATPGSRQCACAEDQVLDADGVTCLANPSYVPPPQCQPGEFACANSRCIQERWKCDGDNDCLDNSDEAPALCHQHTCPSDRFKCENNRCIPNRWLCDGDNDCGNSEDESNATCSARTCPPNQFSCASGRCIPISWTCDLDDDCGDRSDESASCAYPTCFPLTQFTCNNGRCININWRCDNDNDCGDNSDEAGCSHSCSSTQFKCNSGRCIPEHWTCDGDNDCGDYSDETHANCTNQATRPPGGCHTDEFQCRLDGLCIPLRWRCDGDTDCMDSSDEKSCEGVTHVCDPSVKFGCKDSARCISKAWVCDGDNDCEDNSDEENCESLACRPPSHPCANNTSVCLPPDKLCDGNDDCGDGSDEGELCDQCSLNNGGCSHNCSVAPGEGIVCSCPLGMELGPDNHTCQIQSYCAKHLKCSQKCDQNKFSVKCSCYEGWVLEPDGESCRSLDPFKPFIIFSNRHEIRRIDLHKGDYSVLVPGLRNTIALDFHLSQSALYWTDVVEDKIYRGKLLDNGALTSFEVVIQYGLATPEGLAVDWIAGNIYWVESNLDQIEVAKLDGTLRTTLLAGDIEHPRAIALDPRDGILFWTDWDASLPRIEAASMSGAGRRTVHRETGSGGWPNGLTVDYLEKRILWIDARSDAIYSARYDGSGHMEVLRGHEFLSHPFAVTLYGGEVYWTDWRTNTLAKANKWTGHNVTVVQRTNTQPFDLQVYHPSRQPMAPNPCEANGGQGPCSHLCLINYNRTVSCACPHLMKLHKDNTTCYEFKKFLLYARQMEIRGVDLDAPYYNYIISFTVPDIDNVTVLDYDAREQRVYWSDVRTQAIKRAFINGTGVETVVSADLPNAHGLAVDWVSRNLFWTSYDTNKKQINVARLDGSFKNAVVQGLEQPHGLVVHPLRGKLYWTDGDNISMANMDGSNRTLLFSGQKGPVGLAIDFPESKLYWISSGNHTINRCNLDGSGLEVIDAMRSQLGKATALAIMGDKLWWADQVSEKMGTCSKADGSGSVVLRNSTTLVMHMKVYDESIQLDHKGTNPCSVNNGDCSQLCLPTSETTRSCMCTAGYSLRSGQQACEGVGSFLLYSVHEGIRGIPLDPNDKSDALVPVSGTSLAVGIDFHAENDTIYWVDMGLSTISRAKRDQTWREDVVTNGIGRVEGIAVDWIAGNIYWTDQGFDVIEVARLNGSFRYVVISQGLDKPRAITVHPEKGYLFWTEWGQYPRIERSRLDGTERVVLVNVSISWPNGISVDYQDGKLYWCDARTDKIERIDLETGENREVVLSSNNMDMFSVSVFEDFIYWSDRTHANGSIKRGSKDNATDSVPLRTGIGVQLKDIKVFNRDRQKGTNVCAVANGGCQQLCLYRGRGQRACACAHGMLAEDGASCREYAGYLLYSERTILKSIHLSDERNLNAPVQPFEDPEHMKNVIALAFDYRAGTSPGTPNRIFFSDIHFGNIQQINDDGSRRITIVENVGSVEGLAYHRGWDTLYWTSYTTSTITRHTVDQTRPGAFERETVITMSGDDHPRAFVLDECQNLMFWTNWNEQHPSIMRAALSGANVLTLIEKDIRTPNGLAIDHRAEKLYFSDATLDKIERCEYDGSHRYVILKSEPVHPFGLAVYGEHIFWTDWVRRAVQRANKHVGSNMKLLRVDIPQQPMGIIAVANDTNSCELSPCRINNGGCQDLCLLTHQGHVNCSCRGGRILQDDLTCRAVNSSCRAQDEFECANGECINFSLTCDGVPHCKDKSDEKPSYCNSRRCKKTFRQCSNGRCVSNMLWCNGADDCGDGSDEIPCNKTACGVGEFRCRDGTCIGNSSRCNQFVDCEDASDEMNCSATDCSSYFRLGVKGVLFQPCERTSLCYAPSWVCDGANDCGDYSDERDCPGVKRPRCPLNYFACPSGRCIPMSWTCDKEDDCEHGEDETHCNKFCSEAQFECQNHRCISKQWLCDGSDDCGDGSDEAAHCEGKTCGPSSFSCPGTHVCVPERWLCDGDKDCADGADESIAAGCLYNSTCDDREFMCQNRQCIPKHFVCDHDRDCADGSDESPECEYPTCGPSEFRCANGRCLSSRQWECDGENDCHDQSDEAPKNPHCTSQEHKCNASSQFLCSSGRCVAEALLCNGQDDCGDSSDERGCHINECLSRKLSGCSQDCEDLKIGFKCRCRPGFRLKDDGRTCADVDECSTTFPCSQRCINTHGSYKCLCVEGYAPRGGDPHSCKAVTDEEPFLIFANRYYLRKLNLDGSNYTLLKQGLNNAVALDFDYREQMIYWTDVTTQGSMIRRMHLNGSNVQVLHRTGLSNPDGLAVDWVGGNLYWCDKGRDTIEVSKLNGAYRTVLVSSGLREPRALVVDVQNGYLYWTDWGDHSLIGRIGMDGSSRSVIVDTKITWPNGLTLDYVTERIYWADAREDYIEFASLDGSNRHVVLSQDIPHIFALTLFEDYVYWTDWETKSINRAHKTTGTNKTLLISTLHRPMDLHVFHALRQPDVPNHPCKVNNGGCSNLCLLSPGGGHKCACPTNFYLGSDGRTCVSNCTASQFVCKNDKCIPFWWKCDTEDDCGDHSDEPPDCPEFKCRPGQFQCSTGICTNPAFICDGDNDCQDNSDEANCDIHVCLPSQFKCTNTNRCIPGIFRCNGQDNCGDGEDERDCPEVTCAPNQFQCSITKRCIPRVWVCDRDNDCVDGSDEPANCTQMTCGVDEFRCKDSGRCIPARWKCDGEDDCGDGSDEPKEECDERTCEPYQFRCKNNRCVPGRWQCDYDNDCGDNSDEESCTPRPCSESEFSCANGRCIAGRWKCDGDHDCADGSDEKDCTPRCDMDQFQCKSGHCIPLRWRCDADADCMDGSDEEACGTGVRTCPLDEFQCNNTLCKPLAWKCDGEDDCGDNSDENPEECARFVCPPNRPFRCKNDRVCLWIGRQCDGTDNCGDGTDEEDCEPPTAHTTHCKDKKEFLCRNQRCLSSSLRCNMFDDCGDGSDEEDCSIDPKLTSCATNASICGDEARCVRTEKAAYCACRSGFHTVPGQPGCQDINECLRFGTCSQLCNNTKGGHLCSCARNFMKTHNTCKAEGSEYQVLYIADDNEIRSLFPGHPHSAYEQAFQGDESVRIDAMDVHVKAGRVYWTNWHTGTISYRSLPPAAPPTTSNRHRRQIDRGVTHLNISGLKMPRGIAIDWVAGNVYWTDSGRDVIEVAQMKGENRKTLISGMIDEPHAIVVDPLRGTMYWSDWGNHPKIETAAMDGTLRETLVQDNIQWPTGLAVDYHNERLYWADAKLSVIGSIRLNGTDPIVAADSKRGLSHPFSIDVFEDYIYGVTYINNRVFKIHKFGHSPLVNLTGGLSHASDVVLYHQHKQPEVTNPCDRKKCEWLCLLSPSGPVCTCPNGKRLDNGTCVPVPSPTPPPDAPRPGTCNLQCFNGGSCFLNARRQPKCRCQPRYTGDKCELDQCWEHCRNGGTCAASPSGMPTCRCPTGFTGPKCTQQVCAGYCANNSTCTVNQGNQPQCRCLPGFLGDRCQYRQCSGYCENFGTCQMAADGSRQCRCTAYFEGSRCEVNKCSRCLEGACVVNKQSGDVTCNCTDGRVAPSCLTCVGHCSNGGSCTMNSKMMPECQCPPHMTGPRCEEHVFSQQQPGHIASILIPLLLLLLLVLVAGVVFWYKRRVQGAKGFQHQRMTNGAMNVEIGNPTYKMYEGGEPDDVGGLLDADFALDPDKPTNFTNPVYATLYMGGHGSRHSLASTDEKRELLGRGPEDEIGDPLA

B1: IDUAe1 (enzyme)
chain: APHLVHVDAARALWPLRRFWRSTGFCPPLPHSQADQYVLSWDQQLNLAYVGAVPHRGIKQVRTHWLLELVTTRGSTGRGLSYNFTHLDGYLDLLRENQLLPGFELMGSASGHFTDFEDKQQVFEWKDLVSSLARRYIGRYGLAHVSKWNFETWNEPDHHDFDNVSMTMQGFLNYYDACSEGLRAASPALRLGGPGDSFHTPPRSPLSWGLLRHCHDGTNFFTGEAGVRLDYISLHRKGARSSISILEQEKVVAQQIRQLFPKFADTPIYNDEADPLVGWSLPQPWRADVTYAAMVVKVIAQHQNLLLANTTSAFPYALLSNDNAFLSYHPHPFAQRTLTARFQVNNTRPPHVQLLRKPVLTAMGLLALLDEEQLWAEVSQAGTVLDSNHTVGVLASAHRPQGPADAWRAAVLIYASDDTRAHPNRSVAVTLRLRGVPPGPGLVYVTRYLDNGLCSPDGEWRRLGRPVFPTAEQFRRMRAAEDPVAAAPRPLPAGGRLTLRPALRLPSLLLVHVCARPEKPPGQVTRLRALPLTQGQLVLVWSDEHVGSKCLWTYEIQFSQDGKAYTPVSRKPSTFNLFVFSPDTGAVSGSYRVRALDYWARPGPFSDPVPYLEVPVPRGPPSPGNPILKKATAYILLRKLRKRLLLRKLRKRLL
With B1, the “intracellular enzyme level in pause-chase uptake assay, CHO^LDLRneg-LRP1 cells, against unmodified IDUA” value is 2 fold.

The values are drawn from patent US10227387 (CHILDREN S HOSPITAL MEDICAL CENTER, dated 2019).
